According to the supplement of paper PMC9233669:
This sample holds only a part of the variants without activity.

Assays:
biotinyl-Leu-oxazolone = experiment: self-aminoacylation, catalytic enhancement (BLO) (fold over background); higher = more active; k-Seq, kA / k0A0; sequences stand for … in GGGAAUGGAUCCACAUCUACGAAUUC…UUCACUGCAGACUUGACGAAGCUG
Procedure, shortened: (§1)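 Mutagenized RNA pools with a 21-nt variable region (0.43 μM) reacted with each biotinyl-aminoacyl-oxazolone at 2–1250 μM. Reactions ran in 50 μL HEPES/NaCl/KCl/MgCl2/CaCl2 buffer with 5% acetonitrile, pH 6.9–7.0, for 90 minutes at room temperature. Streptavidin-captured RNA was quantified by triplicate qPCR and Illumina sequencing, and per-sequence fraction reacted was fit to a pseudo-first-order model with 1000 bootstraps. Catalytic enhancement is median kA divided by the uncatalyzed rate, the low-activity peak of a bimodal Gaussian fit.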

biotinyl-Val-oxazolone = experiment: self-aminoacylation, catalytic enhancement (BVO) (fold over background); higher = more active; k-Seq, kA / k0A0; sequences stand for … in GGGAAUGGAUCCACAUCUACGAAUUC…UUCACUGCAGACUUGACGAAGCUG
Procedure, shortened: as §1

biotinyl-Met-oxazolone = experiment: self-aminoacylation, catalytic enhancement (BMO) (fold over background); higher = more active; k-Seq, kA / k0A0; sequences stand for … in GGGAAUGGAUCCACAUCUACGAAUUC…UUCACUGCAGACUUGACGAAGCUG
Procedure, shortened: as §1

biotinyl-Phe-oxazolone = experiment: self-aminoacylation, catalytic enhancement (BFO) (fold over background); higher = more active; k-Seq, kA / k0A0; sequences stand for … in GGGAAUGGAUCCACAUCUACGAAUUC…UUCACUGCAGACUUGACGAAGCUG
Procedure, shortened: as §1

biotinyl-Ile-oxazolone = experiment: self-aminoacylation, catalytic enhancement (BIO) (fold over background); higher = more active; k-Seq, kA / k0A0; sequences stand for … in GGGAAUGGAUCCACAUCUACGAAUUC…UUCACUGCAGACUUGACGAAGCUG
Procedure, shortened: as §1

biotinyl-Trp-oxazolone = experiment: self-aminoacylation, catalytic enhancement (BWO) (fold over background); higher = more active; k-Seq, kA / k0A0; sequences stand for … in GGGAAUGGAUCCACAUCUACGAAUUC…UUCACUGCAGACUUGACGAAGCUG
Procedure, shortened: as §1

Row | Sequence | self-aminoacylation (biotinyl-Leu-oxazolone) | self-aminoacylation (biotinyl-Val-oxazolone) | self-aminoacylation (biotinyl-Met-oxazolone) | self-aminoacylation (biotinyl-Phe-oxazolone) | self-aminoacylation (biotinyl-Ile-oxazolone) | self-aminoacylation (biotinyl-Trp-oxazolone)
1 | AAGUUUACUAAUACUCGCAAG [Fam3.1 aminoacylation ribozyme variant] | 1.06 | 1.18 | 1.18 | 1.55 | 1.26 | 1.37
2 | AAGUUUACUAAUAGUCGCAAU [Fam3.1 aminoacylation ribozyme variant] | 1.42 | 1.6 | 1.48 | 3.51 | 1.86 | 1.99
3 | AAGUUUACUAAUAGUCGCGAG [Fam3.1 aminoacylation ribozyme variant] | 1.91 | 1.22 | 1.59 | 2.41 | 1.83 | 1.54
4 | AAGUUUACUAAUAUUCGCAAG [Fam3.1 aminoacylation ribozyme variant] | 1.44 | 1.66 | 1.31 | 2.42 | 1.67 | 2.23
5 | AAGUUUACUAGUAGUCGCAAG [Fam3.1 aminoacylation ribozyme variant] | 1.29 | 1.14 | 1.53 | 1.48 | 1.44 | 1.29
6 | AAGUUUAGUAAUAGUCGCAAG [Fam3.1 aminoacylation ribozyme variant] | 1.71 | 1.55 | 1.75 | 3.24 | 1.85 | 1.23
7 | AAGUUUCCUAAUACUCGCAAG [Fam3.1 aminoacylation ribozyme variant] | 0.891 | 0.889 | 1 | 0.584 | 0.862 | 0.555
8 | AAGUUUCCUAAUAGUAGCAAG [Fam3.1 aminoacylation ribozyme variant] | 1.12 | 1.05 | 1.17 | 1.11 | 1.28 | 0.808
9 | AAGUUUCCUAAUAGUCGAAAG [Fam3.1 aminoacylation ribozyme variant] | 1.44 | 1.14 | 1.1 | 2.75 | 1.45 | 1.76
10 | AAGUUUCCUAAUAGUCGCGAG [Fam3.1 aminoacylation ribozyme variant] | 2.26 | 2.48 | 2.04 | 3.66 | 2.47 | 2.04
11 | AAGUUUCCUAAUAUUCGCAAG [Fam3.1 aminoacylation ribozyme variant] | 0.935 | 0.841 | 0.987 | 0.549 | 0.935 | 0.649
12 | AAGUUUCCUAGUAGUCGCAAG [Fam3.1 aminoacylation ribozyme variant] | 1.06 | 1.44 | 1.2 | 1.27 | 1.12 | 0.668
13 | AAGUUUCCUAUUAGUCGCAAG [Fam3.1 aminoacylation ribozyme variant] | 1.22 | 1.32 | 1.24 | 1.87 | 1.29 | 1.35
14 | AAGUUUGAGAAUAGUCGCAAG [Fam3.1 aminoacylation ribozyme variant] | 1.25 | 1.29 | 1.2 | 2.05 | 1.48 | 1.59
15 | AAGUUUGAUAAUAGACGCAAG [Fam3.1 aminoacylation ribozyme variant] | 0.311 | 0.418 | 0.346 | 0.787 | 0.364 | 0.331
16 | AAGUUUGAUAAUAGUCGGAAG [Fam3.1 aminoacylation ribozyme variant] | 0.536 | 0.572 | 0.556 | 0.778 | 0.514 | 0.436
17 | AAGUUUGAUAAUCGUCGCAAG [Fam3.1 aminoacylation ribozyme variant] | 1.26 | 1.13 | 1.25 | 1.99 | 1.54 | 1.43
18 | AAGUUUGCAAAUAGUCACAAG [Fam3.1 aminoacylation ribozyme variant] | 0.949 | 0.982 | 1.11 | 0.954 | 1.05 | 0.887
19 | AAGUUUGCAAAUAGUCGCAAA [Fam3.1 aminoacylation ribozyme variant] | 1.79 | 1.62 | 1.52 | 0.845 | 1.67 | 1.21
20 | AAGUUUGCAAAUAGUCGCAAG [Fam3.1 aminoacylation ribozyme variant] | 0.665 | 0.752 | 0.734 | 1.03 | 0.763 | 0.789
21 | AAGUUUGCAAAUAGUCGCAAU [Fam3.1 aminoacylation ribozyme variant] | 1.27 | 1.26 | 1.64 | 2.03 | 1.35 | 1.78
22 | AAGUUUGCCAAUAGGCGCAAG [Fam3.1 aminoacylation ribozyme variant] | 1.15 | 1.02 | 0.885 | 1.05 | 1.04 | 0.799

Row | Sequence | self-aminoacylation (biotinyl-Leu-oxazolone) | self-aminoacylation (biotinyl-Val-oxazolone) | self-aminoacylation (biotinyl-Met-oxazolone) | self-aminoacylation (biotinyl-Phe-oxazolone) | self-aminoacylation (biotinyl-Ile-oxazolone) | self-aminoacylation (biotinyl-Trp-oxazolone)
23 | AAGUUUGCCAAUAGUCGCAUG [Fam3.1 aminoacylation ribozyme variant] | 1.45 | 1.59 | 1.79 | 1.7 | 1.5 | 1.56
24 | AAGUUUGCCAAUAGUCGCGAG [Fam3.1 aminoacylation ribozyme variant] | 2.25 | 2.09 | 1.96 | 11.6 | 1.61 | 3.77
25 | AAGUUUGCCAAUAGUUGCAAG [Fam3.1 aminoacylation ribozyme variant] | 0.958 | 0.866 | 0.895 | 1.39 | 0.948 | 0.808
26 | AAGUUUGCCAAUAUUCGCAAG [Fam3.1 aminoacylation ribozyme variant] | 1.07 | 1.07 | 1.35 | 3.77 | 1.51 | 1.45
27 | AAGUUUGCCACUAGUCGCAAG [Fam3.1 aminoacylation ribozyme variant] | 0.973 | 1.15 | 0.991 | 0.709 | 0.918 | 0.807
28 | AAGUUUGCCUAUAGUCGCAAG [Fam3.1 aminoacylation ribozyme variant] | 0.718 | 0.981 | 0.706 | 0.956 | 0.844 | 0.784
29 | AAGUUUGCGAAUAGUCGAAAG [Fam3.1 aminoacylation ribozyme variant] | 1.11 | 0.733 | 1.17 | 0.796 | 1.05 | 0.83
30 | AAGUUUGCGAAUAGUCGCAUG [Fam3.1 aminoacylation ribozyme variant] | 1.23 | 1.08 | 1.04 | 1.13 | 1.1 | 1
31 | AAGUUUGCUAAAAGUCGUAAG [Fam3.1 aminoacylation ribozyme variant] | 0.982 | 0.971 | 1.28 | 25.8 | 1.12 | 6.5
32 | AAGUUUGCUAAAGGUCGCAAG [Fam3.1 aminoacylation ribozyme variant] | 0.716 | 0.625 | 0.931 | 1.14 | 0.687 | 0.835
33 | AAGUUUGCUAACCGUCGCAAG [Fam3.1 aminoacylation ribozyme variant] | 0.755 | 0.754 | 0.567 | 0.981 | 0.714 | 0.488
34 | AAGUUUGCUAAGAGUCGAAAG [Fam3.1 aminoacylation ribozyme variant] | 0.602 | 0.785 | 0.817 | 1.3 | 0.804 | 0.757
35 | AAGUUUGCUAAGAGUCGCAAU [Fam3.1 aminoacylation ribozyme variant] | 1.05 | 1.01 | 0.797 | 1.24 | 1.42 | 1.74
36 | AAGUUUGCUAAGAGUCGCAUG [Fam3.1 aminoacylation ribozyme variant] | 1.03 | 1.1 | 1.07 | 1.82 | 0.902 | 1.69
37 | AAGUUUGCUAAGAGUGGCAAG [Fam3.1 aminoacylation ribozyme variant] | 0.724 | 1.11 | 0.955 | 0.543 | 0.861 | 0.872
38 | AAGUUUGCUAAGUGUCGCAAG [Fam3.1 aminoacylation ribozyme variant] | 0.786 | 0.897 | 0.887 | 1.9 | 0.902 | 0.987
39 | AAGUUUGCUAAUAAACGCAAG [Fam3.1 aminoacylation ribozyme variant] | 0.687 | 0.667 | 0.833 | 1.12 | 0.774 | 0.97
40 | AAGUUUGCUAAUAAUCGCAAC [Fam3.1 aminoacylation ribozyme variant] | 0.773 | 0.975 | 1.06 | 0.842 | 0.8 | 1.18
41 | AAGUUUGCUAAUAAUGGCAAG [Fam3.1 aminoacylation ribozyme variant] | 0.479 | 0.727 | 0.599 | 0.786 | 0.644 | 0.585
42 | AAGUUUGCUAAUACCCGCAAG [Fam3.1 aminoacylation ribozyme variant] | 0.783 | 0.838 | 0.577 | 0.631 | 0.909 | 1.45
43 | AAGUUUGCUAAUAGACGCAUG [Fam3.1 aminoacylation ribozyme variant] | 0.553 | 0.59 | 0.48 | 0.785 | 0.645 | 0.703
